Test results from patent publication EP4786492A1 (Simcere Zaiming Pharmaceutical Co., Ltd., dated 2026).

T1: human DLL3 protein (extracellular segment, His tag) (human, UniProt Q9NYJ7 27-492)
T1 construct: also called human DLL3-his protein; DLL3 antigen; not shown: His tag
T1 sequence: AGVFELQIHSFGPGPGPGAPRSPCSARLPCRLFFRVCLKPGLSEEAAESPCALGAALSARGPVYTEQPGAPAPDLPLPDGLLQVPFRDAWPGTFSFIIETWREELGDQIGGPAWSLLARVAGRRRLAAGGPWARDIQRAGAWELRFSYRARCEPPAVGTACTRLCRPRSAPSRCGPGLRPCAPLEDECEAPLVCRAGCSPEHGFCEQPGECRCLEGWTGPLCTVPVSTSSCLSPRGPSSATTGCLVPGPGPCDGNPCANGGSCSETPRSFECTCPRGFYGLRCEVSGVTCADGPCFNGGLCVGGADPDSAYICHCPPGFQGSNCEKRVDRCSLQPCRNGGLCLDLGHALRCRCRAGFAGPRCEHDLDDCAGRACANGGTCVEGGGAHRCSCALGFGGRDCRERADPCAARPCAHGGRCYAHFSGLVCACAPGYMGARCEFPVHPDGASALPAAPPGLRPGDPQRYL

T2: human DLL1 protein (human, UniProt O00548 18-540, limits assumed)
T2 construct: bought protein; construct and tag not described; also called hDLL1
T2 sequence (looked up): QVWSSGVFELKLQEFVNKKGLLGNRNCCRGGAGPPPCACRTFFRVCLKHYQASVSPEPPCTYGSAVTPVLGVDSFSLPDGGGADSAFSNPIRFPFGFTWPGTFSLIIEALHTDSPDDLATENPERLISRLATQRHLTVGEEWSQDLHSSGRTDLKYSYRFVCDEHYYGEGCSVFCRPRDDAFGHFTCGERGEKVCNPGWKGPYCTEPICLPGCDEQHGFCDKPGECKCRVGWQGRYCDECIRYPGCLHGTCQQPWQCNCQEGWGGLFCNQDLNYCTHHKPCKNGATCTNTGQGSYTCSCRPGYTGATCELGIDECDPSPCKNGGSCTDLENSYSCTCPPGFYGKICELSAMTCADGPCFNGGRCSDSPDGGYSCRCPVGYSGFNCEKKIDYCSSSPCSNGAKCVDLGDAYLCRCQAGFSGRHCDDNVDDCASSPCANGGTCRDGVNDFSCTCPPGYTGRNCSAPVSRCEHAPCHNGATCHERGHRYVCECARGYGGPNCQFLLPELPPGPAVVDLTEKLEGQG

T3: human DLL3-his protein (human, UniProt Q9NYJ7 27-492)
T3 construct: also called human DLL3 protein; DLL3 antigen protein; not shown: His tag
T3 sequence: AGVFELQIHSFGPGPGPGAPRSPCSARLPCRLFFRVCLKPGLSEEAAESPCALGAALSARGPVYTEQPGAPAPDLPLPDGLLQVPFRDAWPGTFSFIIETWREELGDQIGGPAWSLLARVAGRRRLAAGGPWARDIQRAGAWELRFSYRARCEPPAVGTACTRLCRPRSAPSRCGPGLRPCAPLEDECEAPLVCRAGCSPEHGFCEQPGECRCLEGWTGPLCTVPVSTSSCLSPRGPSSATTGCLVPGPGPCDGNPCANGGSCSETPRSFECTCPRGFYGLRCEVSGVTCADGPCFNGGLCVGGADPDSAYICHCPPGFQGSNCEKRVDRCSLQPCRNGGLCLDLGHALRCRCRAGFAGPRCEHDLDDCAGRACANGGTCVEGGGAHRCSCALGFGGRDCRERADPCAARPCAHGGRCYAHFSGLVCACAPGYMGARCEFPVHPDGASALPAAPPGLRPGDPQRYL

T4: monkey DLL3 on CHO K1-cyno DLL3 cells (cynomolgus monkey)
T4 construct: also called monkey DLL3 recombinant cell line
T4 chain: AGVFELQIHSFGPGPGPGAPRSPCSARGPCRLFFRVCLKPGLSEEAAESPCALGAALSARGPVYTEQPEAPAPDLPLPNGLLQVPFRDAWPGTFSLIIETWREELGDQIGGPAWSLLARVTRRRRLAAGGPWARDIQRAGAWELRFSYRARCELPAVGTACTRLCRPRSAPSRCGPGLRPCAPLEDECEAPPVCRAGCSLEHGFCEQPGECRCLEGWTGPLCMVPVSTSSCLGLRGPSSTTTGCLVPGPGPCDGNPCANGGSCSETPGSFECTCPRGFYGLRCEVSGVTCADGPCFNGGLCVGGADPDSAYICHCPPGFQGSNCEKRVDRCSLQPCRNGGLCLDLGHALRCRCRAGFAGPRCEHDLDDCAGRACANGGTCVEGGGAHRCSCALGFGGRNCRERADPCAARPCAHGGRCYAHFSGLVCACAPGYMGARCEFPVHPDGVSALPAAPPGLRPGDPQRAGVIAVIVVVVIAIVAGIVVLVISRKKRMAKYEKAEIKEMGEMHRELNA


Key:
[1] = molecular target: T1, human DLL3 protein (extracellular …); experiment: SPR (Biacore 8K), antibody captured on Protein A chip, DLL3 antigen in solution, 1:1 Langmuir fit
human DLL4 protein = molecular target: T5, human DLL4 protein (human, UniProt Q9NR61 27-524, limits assumed); experiment: ELISA, maximum over 0.1-100 nM
T5 construct: bought protein; construct and tag not described; also called hDLL4

human DLL1 protein = molecular target: T2, human DLL1 protein; experiment: ELISA, maximum over 0.1-100 nM
human DLL3-his protein = molecular target: T3, human DLL3-his protein; experiment: ELISA
[2] = molecular target: T4, monkey DLL3 on CHO K1-cyno DLL3 cells; experiment: FACS, CHO K1-cyno DLL3 cells

T5 sequence (Q9NR61 27-524 limits assumed): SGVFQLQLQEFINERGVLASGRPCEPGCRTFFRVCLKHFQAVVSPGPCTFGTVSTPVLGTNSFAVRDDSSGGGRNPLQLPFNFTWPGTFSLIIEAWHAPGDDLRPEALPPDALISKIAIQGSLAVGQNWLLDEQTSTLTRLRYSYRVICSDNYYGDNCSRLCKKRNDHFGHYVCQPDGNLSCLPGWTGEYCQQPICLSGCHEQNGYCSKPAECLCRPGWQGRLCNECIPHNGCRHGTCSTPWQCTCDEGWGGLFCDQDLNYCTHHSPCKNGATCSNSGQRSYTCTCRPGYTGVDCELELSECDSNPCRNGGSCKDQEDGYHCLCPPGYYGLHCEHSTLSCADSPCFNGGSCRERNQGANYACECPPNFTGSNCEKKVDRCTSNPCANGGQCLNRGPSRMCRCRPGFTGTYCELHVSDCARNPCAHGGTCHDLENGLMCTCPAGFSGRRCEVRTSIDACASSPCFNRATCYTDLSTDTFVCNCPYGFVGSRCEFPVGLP

Kd [1]	koff [1]	kon [1]	Emax of OD450 nm binding value (human DLL4 protein)	Emax of OD450 nm binding value (human DLL1 protein)	binding result (human DLL3-his protein)	binding result [2]	Binder
0.0497 nM	4.7e-05 s⁻¹	945000 M⁻¹ s⁻¹					BI3 (antibody, human IgG1, kappa, V domains shown, control antibody in complete IgG format, variable regions from WO2019234220A1) VH: QVQLVQSGAEVKKPGASVKVSCKASGYTFTSYYVHWVRQAPGQGLEWMVIINPGGGTTSYAQKFLGRVTMTRDTSTNTVYMELKSLRSEDTAVYYCARGEAVTGNYFYYGMDVWGQGTTVTVSS VL: DIQMTQSPSAMSASVGDRVTITCRASQGISNYLVWFQQKPGKAPKRLIYAVSSLYSGVPSRFSGSGSGTEFTLTISSLQPEDFATYYCLQHDSYPYTFGQGTKLEIKR
			0.05 OD450	0.06 OD450	binds	binds	mab003 scFv-hFc (Fc fusion, human-murine chimeric scFv-hFc, VL-linker-VH-human IgG1 Fc; not shown: linker; Fc fragment of human IgG1) scFv (part 1 of 2): DVQITQSPSYLAASPGETITINCRASKSISKYLAWYQEKPGKTNKLLIYSGSTLHSGIPSRFSGSGSGTDFTLTISSLEPEDFAIYYCQQHNEYPLTFGGGTKLELK scFv (part 2 of 2): QVQLQQSGTELMKPGASVKLSCKATGYTFTGNWIEWVKQRPGHGLEWIGEILPGTGSTQYNEKFKGKATFTADPSSNTAYMQLSSLTTEDSAIYYCARWGSTVVAYDYWGQGTTLTVSS
			0.07 OD450	0.08 OD450	binds	binds	mab006 scFv-hFc (Fc fusion, human-murine chimeric scFv-hFc, VL-linker-VH-human IgG1 Fc; not shown: linker; Fc fragment of human IgG1) scFv (part 1 of 2): DVQITQSPSYLAASPGETITINCRATKSISKYLAWYQEKPGKTNKLLIFSGSTLQSGIPSRFRGSGSGTDFTLTISSLEPEDFAMYYCQQHHEYPYTFGGGTKLEIK scFv (part 2 of 2): QVQLQQPGAELVRPGTSVKLSCKASGYTFTSYWMHWVRQRPGQGLEWIGVIDPSDSLANYNQEFKGKATLTVDTSSSTAYMQLSSLTSEDSAVYYCARDSTVVAPMDYWGQGTSVTVSS
			0.06 OD450	0.07 OD450	binds	binds	mab007 scFv-hFc (Fc fusion, human-murine chimeric scFv-hFc, VL-linker-VH-human IgG1 Fc; not shown: linker; Fc fragment of human IgG1) scFv (part 1 of 2): DVQITQSPSYLAASPGETITINCRASTSISKYLAWYQERPGKTNKLLIYSGSTLQSGIPSRFRGSGSGTDFTLTISSLEPEDFAMYYCQQHHVYPYTFGGGTKLEIK scFv (part 2 of 2): QVQLQQPGAELVRPGTSVKLSCKASGYTFTSYWMHWVKQRPGQGLEWIGVIDPSDSLANYNQEFKGKATLTVDTSSSTAYMQLSSLTSEDSAVYYCARDSTVVAPMDYWGQGTSVTVSS
			0.08 OD450	0.09 OD450	binds	binds	mab008 scFv-hFc (Fc fusion, human-murine chimeric scFv-hFc, VL-linker-VH-human IgG1 Fc; not shown: linker; Fc fragment of human IgG1) scFv (part 1 of 2): DIVMTQSQKFMSTSVGDRVSITCKASQNVGTAVAWYQQKPGQSPKLLIFSASIRYTGVPDRFTGSGSGTDFTLTISNMQSEDLADYFCQQYSSSPYTFGGGTKLEIK scFv (part 2 of 2): EVQLQQSGPVLVKPGASVKMSCKASGYTFTDYYMNWVKRSHGKSLEWIGIINPYNGGTSYNQKFRGKATLTVDKSSNTAYMELNSLTSEDSAVYYCSRYDYDYDVEGAMDYWGQGTSVTVSS
			0.05 OD450	0.05 OD450	binds	binds	mab001 scFv-hFc (Fc fusion, human-murine chimeric scFv-hFc, VL-linker-VH-human IgG1 Fc; not shown: linker; Fc fragment of human IgG1) scFv (part 1 of 2): not shown scFv (part 2 of 2): QIQLVQSGPELKKPGETVKISCKASGYTFTTYGMSWVKQAPGKGLKWMGWINTYSGVPTYADDFKGRFAFSLETSASTAYLQINNLKNEDTATYFCARIGDYDYGEYWGQGTLVTVSA
